Test results: patent US20120213804A1 (Pfizer, published 2012)
Like-named read-outs stand apart in the source and are kept apart here.

Key:
Fc-CD22 [1] = target: Fc-CD22 (UniProt P20273); experiment: BIACORE, Fc-CD22 on CM5 chip, no G5/44
Fc-CD22 [2] = target: Fc-CD22 (UniProt P20273); experiment: BIACORE, Fc-CD22 on CM5 chip; competitor G5/44 pre-bound
CD22mFc [3] = target: T1, CD22mFc (UniProt P20273 20-687, limits assumed); experiment: Biacore 2000; CD22mFc captured via immobilized anti-mouse Fc, antibody in the soluble phase; column head '~KD nM'
T1 construct: also called CD22-mFc constructs; not shown: mouse Fc (captured by anti-mouse Fc)
Method: (§1) All binding measurements were performed in the BIACORE™ 2000 instrument (Pharmacia Biosensor AB, Uppsala, Sweden). The assay was performed by capture of CD22mFc via the immobilized anti-mouse Fc. The antibody was in the soluble phase. Samples, standard, and controls (50 μl) were injected over immobilized anti-mouse Fc followed by antibody in the soluble phase. After each cycle, the surface was regenerated with 50 μl of 40 mM HCl at 30 μl/min. The kinetic analysis was performed using the BIAevaluation 3.1 software (Pharmacia).

CD22mFc [4] = target: T1, CD22mFc; experiment: BIACORE 2000, CD22mFc captured via anti-mouse Fc
Method: as §1

[5] = target: T2, human CD22 on the surface of B cells (Ramos, RL, Daudi, Raji lymphoma cells; B cell lymphoma tissue) (human, UniProt P20273 20-847); experiment: cell-based or functional assay
[6] = target: T3, CD33 on CD22- CD33+ HL-60 leukemia cells (human, UniProt P20138 18-364); experiment: flow cytometry
T3 construct: whole, on cells
T3 sequence (P20138 18-364): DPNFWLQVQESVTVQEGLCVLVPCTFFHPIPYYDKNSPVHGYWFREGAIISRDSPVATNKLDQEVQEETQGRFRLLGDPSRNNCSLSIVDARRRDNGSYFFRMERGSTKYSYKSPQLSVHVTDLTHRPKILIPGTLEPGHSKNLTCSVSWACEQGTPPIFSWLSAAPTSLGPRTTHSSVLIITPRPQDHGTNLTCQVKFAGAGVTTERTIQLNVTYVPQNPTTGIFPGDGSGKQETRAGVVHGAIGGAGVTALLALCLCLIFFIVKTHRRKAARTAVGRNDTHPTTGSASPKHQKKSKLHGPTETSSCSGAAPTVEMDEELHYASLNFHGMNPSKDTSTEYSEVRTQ
Excerpt: Purified human polyclonal IgG1 and IgG4 were also used as negative controls.

CD22mFc [7] = target: T1, CD22mFc; experiment: SPR (BIACORE 2000), CD22mFc on CM5 chip, global 1:1 Langmuir fit with mass transfer
Method: (§2) Biosensor analyses were carried out using a BIACORE™ 2000 (BIAcore AB, Uppsala, Sweden). CD22mFc was covalently immobilized on the N-hydroxysuccinimide-activated carboxymethyl dextran-coated biosensor chip (CM5) using a standard amine-coupling chemistry at a protein density of approximately 2000 resonance units. […] After the binding phase, dissociation of the bound antibody was monitored by washing the chip with the HBS buffer over a 15 minute period. The antigenic surface was regenerated by washing the Biosensor chip with 15 μl of the regeneration buffer (10 mM NaOH and 200 mM NaCl) for 30 seconds, followed by a stabilization time of 2 minutes before the next cycle. Kinetic constants were calculated by nonlinear least square regression analysis using a 1:1 Langmuir binding curve fitting model and BIAevaluation program (version 3.0, BIAcore).

CD22mFc [8] = target: T1, CD22mFc; experiment: SPR (BIACORE 2000), CD22mFc immobilized on CM5 chip
Method: as §2

[9] = target: T2, human CD22 on the surface of B cells …; experiment: cell-based or functional assay; remark: listed apart in the source
[10] = target: T2, human CD22 on the surface of B cells …; experiment: cell-based or functional assay; remark: listed apart in the source

Molecule: anti-CD22 antibody SHCL-1, Leu 14 (Becton Dickinson)
- Binding of 2nd mAb without G544 adjusted for background (RU) (Fc-CD22 [1]): 29.3 RU
- Inhibition by G544 (%) (Fc-CD22 [2]): 69%
- Response 2 with G544 (combined response, RU) (Fc-CD22 [2]): 580 RU
- Response 3 (Response 2-1) (RU) (Fc-CD22 [2]): -74.5 RU
- Response 3 adjusted for OFF rate of G544 (RU) (Fc-CD22 [2]): 9 RU

Molecule: anti-CD22 antibody BLCAM, HD239 (Santa Cruz Biotech)
- Binding of 2nd mAb without G544 adjusted for background (RU) (Fc-CD22 [1]): 19.3 RU
- Inhibition by G544 (%) (Fc-CD22 [2]): 91%
- Response 2 with G544 (combined response, RU) (Fc-CD22 [2]): 629 RU
- Response 3 (Response 2-1) (RU) (Fc-CD22 [2]): -81.8 RU
- Response 3 adjusted for OFF rate of G544 (RU) (Fc-CD22 [2]): 1.7 RU

Molecule: anti-CD22 antibody 4 KB128 (Dako Corp)
- Binding of 2nd mAb without G544 adjusted for background (RU) (Fc-CD22 [1]): 739 RU
- Inhibition by G544 (%) (Fc-CD22 [2]): 0%
- Response 2 with G544 (combined response, RU) (Fc-CD22 [2]): 1340 RU
- Response 3 (Response 2-1) (RU) (Fc-CD22 [2]): 652 RU
- Response 3 adjusted for OFF rate of G544 (RU) (Fc-CD22 [2]): 736 RU

Molecule: anti-CD22 antibody To 15 (Dako Corp)
- Binding of 2nd mAb without G544 adjusted for background (RU) (Fc-CD22 [1]): 615 RU
- Inhibition by G544 (%) (Fc-CD22 [2]): 7%
- Response 2 with G544 (combined response, RU) (Fc-CD22 [2]): 1160 RU
- Response 3 (Response 2-1) (RU) (Fc-CD22 [2]): 487 RU
- Response 3 adjusted for OFF rate of G544 (RU) (Fc-CD22 [2]): 570 RU

Molecule: anti-CD19 antibody BU12 (Celltech)
- Inhibition by G544 (%) (Fc-CD22 [2]): 0%
- Response 2 with G544 (combined response, RU) (Fc-CD22 [2]): 603 RU
- Response 3 (Response 2-1) (RU) (Fc-CD22 [2]): -83.5 RU
- Response 3 adjusted for OFF rate of G544 (RU) (Fc-CD22 [2]): 0 RU

B1: chimeric 5/44 variant K60R (antibody, V domains shown)
VH: EVQLQQSGTVLARPGASVKMSCKASGYRFTNYWIHWVKQRPGQGLEWIGGINPGNNYTTYRRNLKGKATLTAVTSASTAYMDLSSLTSEDSAVYYCTREGYGNYGAWFAYWGQGTLVTVSS
VL: DVVVTQTPLSLPVSFGDQVSISCRSSQSLANSYGNTFLSWYLHKPGQSPQLLIYGISNRFSGVPDRFTGSGSGTDFTLKISTIKPEDLGMYYCLQGTHQPYTFGGGTKLEIKR
notes: Human kappa / human gamma-4 constant regions; The position is as printed
- Kd (CD22mFc [3]): ~0.2 nM

B2: chimeric 5/44 variant N55Q (antibody, V domains shown)
VH: EVQLQQSGTVLARPGASVKMSCKASGYRFTNYWIHWVKQRPGQGLEWIGGINPGNQYTTYKRNLKGKATLTAVTSASTAYMDLSSLTSEDSAVYYCTREGYGNYGAWFAYWGQGTLVTVSS
VL: DVVVTQTPLSLPVSFGDQVSISCRSSQSLANSYGNTFLSWYLHKPGQSPQLLIYGISNRFSGVPDRFTGSGSGTDFTLKISTIKPEDLGMYYCLQGTHQPYTFGGGTKLEIKR
notes: as for B1
- Kd (CD22mFc [3]): ~0.3 nM

B3: chimeric 5/44 variant T57A (antibody, V domains shown)
VH: EVQLQQSGTVLARPGASVKMSCKASGYRFTNYWIHWVKQRPGQGLEWIGGINPGNNYATYKRNLKGKATLTAVTSASTAYMDLSSLTSEDSAVYYCTREGYGNYGAWFAYWGQGTLVTVSS
VL: DVVVTQTPLSLPVSFGDQVSISCRSSQSLANSYGNTFLSWYLHKPGQSPQLLIYGISNRFSGVPDRFTGSGSGTDFTLKISTIKPEDLGMYYCLQGTHQPYTFGGGTKLEIKR
notes: Human kappa / human gamma-4 constant regions; The position is as printed (CDR-H2, Kabat definition); also called construct T57A
- affinity improvement compared to the chimeric 5/44 (fold) (CD22mFc [4]): ~5 fold
- Kd (CD22mFc [3]): ~0.07 nM

B4: CMC-544 (G5/44-NAc-gamma-calicheamicin DMH AcBut conjugate), preparation not specified (antibody, human IgG4 S228P, kappa, V domains shown)
VH: EVQLVQSGAEVKKPGASVKVSCKASGYRFTNYWIHWVRQAPGQGLEWIGGINPGNNYATYRRKFQGRVTMTADTSTSTVYMELSSLRSEDTAVYYCTREGYGNYGAWFAYWGQGTLVTVSS
VL: DVQVTQSPSSLSASVGDRVTITCRSSQSLANSYGNTFLSWYLHKPGKAPQLLIYGISNRFSGVPDRFSGSGSGTDFTLTISSLQPEDFATYYCLQGTHQPYTFGQGTKVEIKR
modifications: NAc-gamma calicheamicin DMH AcBut conjugated to the antibody; chain and residues not stated
notes: also called NAc-Gamma Calicheamicin DMH AcBut-G5/44 immunoconjugate
- killing of CD22+ target cells relative to the unconjugated drug [5]: ≥ 10 times
- binding result [6]: no binding
- Kd (CD22mFc [7]): 0.2 nM

B5: CMC-544 (87 µg/mg) (CMC-544 procedure) (antibody, human IgG4 S228P, kappa, V domains shown)
VH: EVQLVQSGAEVKKPGASVKVSCKASGYRFTNYWIHWVRQAPGQGLEWIGGINPGNNYATYRRKFQGRVTMTADTSTSTVYMELSSLRSEDTAVYYCTREGYGNYGAWFAYWGQGTLVTVSS
VL: DVQVTQSPSSLSASVGDRVTITCRSSQSLANSYGNTFLSWYLHKPGKAPQLLIYGISNRFSGVPDRFSGSGSGTDFTLTISSLQPEDFATYYCLQGTHQPYTFGQGTKVEIKR
modifications: NAc-gamma calicheamicin DMH AcBut conjugated, loading 87 µg/mg; chain and residues not stated
- Ka (CD22mFc [8]): 6.6e+09 M⁻¹
- Kd (CD22mFc [8]): 0.15 nM
- koff (CD22mFc [8]): 6.9e-05 s⁻¹
- kon (CD22mFc [8]): 460000 M⁻¹ s⁻¹

B6: CMC-544, CMA-676 process, loading 35 µg/mg (antibody, human IgG4 S228P, kappa, V domains shown)
VH: EVQLVQSGAEVKKPGASVKVSCKASGYRFTNYWIHWVRQAPGQGLEWIGGINPGNNYATYRRKFQGRVTMTADTSTSTVYMELSSLRSEDTAVYYCTREGYGNYGAWFAYWGQGTLVTVSS
VL: DVQVTQSPSSLSASVGDRVTITCRSSQSLANSYGNTFLSWYLHKPGKAPQLLIYGISNRFSGVPDRFSGSGSGTDFTLTISSLQPEDFATYYCLQGTHQPYTFGQGTKVEIKR
modifications: NAc-gamma calicheamicin DMH AcBut conjugated, loading 35 µg/mg; chain and residues not stated
- growth inhibition IC50, Daudi #1 [9]: 2.29 µg/mL of antibody
- growth inhibition IC50, RL #1 [9]: 0.86 µg/mL of antibody
- growth inhibition IC50, RL #2 [9]: 1.14 µg/mL of antibody
- growth inhibition IC50, Raji #2 [9]: 14.9 µg/mL of antibody
- growth inhibition IC50, Ramos #1 [9]: 3.71 µg/mL of antibody
- growth inhibition IC50, Daudi #1 [10]: 80 pM of calicheamicin
- growth inhibition IC50, RL #1 [10]: 30 pM of calicheamicin
- growth inhibition IC50, RL #2 [10]: 40 pM of calicheamicin
- growth inhibition IC50, Raji #2 [10]: 520 pM of calicheamicin
- growth inhibition IC50, Ramos #1 [10]: 130 pM of calicheamicin

B7: CMC-544 (21 µg/mg) (CMA-676 procedure) (antibody, human IgG4 S228P, kappa, V domains shown)
VH: EVQLVQSGAEVKKPGASVKVSCKASGYRFTNYWIHWVRQAPGQGLEWIGGINPGNNYATYRRKFQGRVTMTADTSTSTVYMELSSLRSEDTAVYYCTREGYGNYGAWFAYWGQGTLVTVSS
VL: DVQVTQSPSSLSASVGDRVTITCRSSQSLANSYGNTFLSWYLHKPGKAPQLLIYGISNRFSGVPDRFSGSGSGTDFTLTISSLQPEDFATYYCLQGTHQPYTFGQGTKVEIKR
modifications: NAc-gamma calicheamicin DMH AcBut conjugated, loading 21 µg/mg; chain and residues not stated
- Ka (CD22mFc [8]): 8.1e+09 M⁻¹
- Kd (CD22mFc [8]): 0.12 nM
- koff (CD22mFc [8]): 6.1e-05 s⁻¹
- kon (CD22mFc [8]): 490000 M⁻¹ s⁻¹

B8: humanized anti-CD22 antibody G5/44 (antibody, human IgG4 S228P, kappa, V domains shown)
VH: EVQLVQSGAEVKKPGASVKVSCKASGYRFTNYWIHWVRQAPGQGLEWIGGINPGNNYATYRRKFQGRVTMTADTSTSTVYMELSSLRSEDTAVYYCTREGYGNYGAWFAYWGQGTLVTVSS
VL: DVQVTQSPSSLSASVGDRVTITCRSSQSLANSYGNTFLSWYLHKPGKAPQLLIYGISNRFSGVPDRFSGSGSGTDFTLTISSLQPEDFATYYCLQGTHQPYTFGQGTKVEIKR
notes: also called Humanized G5/44; gL1gH7
- binding result [6]: no binding
- Ka (CD22mFc [8]): 7.9e+09 M⁻¹
- Kd (CD22mFc [8]): 0.13 nM
- koff (CD22mFc [8]): 2.8e-05 s⁻¹
- kon (CD22mFc [8]): 220000 M⁻¹ s⁻¹
- Kd (CD22mFc [7]): 0.235 nM

B9: CMC-544, CMC-544 process, loading 65 µg/mg (antibody, human IgG4 S228P, kappa, V domains shown)
VH: EVQLVQSGAEVKKPGASVKVSCKASGYRFTNYWIHWVRQAPGQGLEWIGGINPGNNYATYRRKFQGRVTMTADTSTSTVYMELSSLRSEDTAVYYCTREGYGNYGAWFAYWGQGTLVTVSS
VL: DVQVTQSPSSLSASVGDRVTITCRSSQSLANSYGNTFLSWYLHKPGKAPQLLIYGISNRFSGVPDRFSGSGSGTDFTLTISSLQPEDFATYYCLQGTHQPYTFGQGTKVEIKR
modifications: NAc-gamma calicheamicin DMH AcBut conjugated, loading 65 µg/mg; chain and residues not stated
- growth inhibition IC50, Daudi #1 [9]: 0.32 µg/mL of antibody
- growth inhibition IC50, RL #1 [9]: 0.09 µg/mL of antibody
- growth inhibition IC50, RL #2 [9]: 0.18 µg/mL of antibody
- growth inhibition IC50, Raji #1 [9]: 7.69 µg/mL of antibody
- growth inhibition IC50, Raji #2 [9]: 8.62 µg/mL of antibody
- growth inhibition IC50, Ramos #1 [9]: 3.08 µg/mL of antibody
- growth inhibition IC50, Ramos #2 [9]: 4 µg/mL of antibody
- growth inhibition IC50, Daudi #1 [10]: 21 pM of calicheamicin
- growth inhibition IC50, RL #1 [10]: 6 pM of calicheamicin
- growth inhibition IC50, RL #2 [10]: 12 pM of calicheamicin
- growth inhibition IC50, Raji #1 [10]: 500 pM of calicheamicin
- growth inhibition IC50, Raji #2 [10]: 560 pM of calicheamicin
- growth inhibition IC50, Ramos #1 [10]: 200 pM of calicheamicin
- growth inhibition IC50, Ramos #2 [10]: 260 pM of calicheamicin
